The target of test [1] is VEGF (vascular endothelial growth factor) (UniProt P15692). Nature of the test: BioVeris ECL competition assay with a labeled competitor; legend: +++ = IC50 about 2 - 10 µM.
Test [2] deals with TGFβ1 (transforming growth factor β1) (UniProt P01137). Nature of the test: BioVeris ECL competition assay with a labeled competitor; legend: ++ = IC50 about 10 - 50 µM.
For test [3], the target named is FGF-5 (fibroblast growth factor 5) (UniProt P12034). In words: BioVeris ECL competition assay with a labeled competitor; negative control.
Test [4] concerns the target VEGF (vascular endothelial growth factor) (UniProt P15692). The description is as above.

VEGF (vascular endothelial growth factor), sequence (P15692 other isoform, or with tags, fused parts or gaps limits assumed): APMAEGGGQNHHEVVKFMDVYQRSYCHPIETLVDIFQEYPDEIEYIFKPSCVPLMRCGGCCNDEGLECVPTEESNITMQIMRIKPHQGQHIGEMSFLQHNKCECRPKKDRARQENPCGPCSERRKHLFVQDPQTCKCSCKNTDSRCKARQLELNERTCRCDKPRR
TGFβ1 (transforming growth factor β1), sequence (P01137 279-390 limits assumed): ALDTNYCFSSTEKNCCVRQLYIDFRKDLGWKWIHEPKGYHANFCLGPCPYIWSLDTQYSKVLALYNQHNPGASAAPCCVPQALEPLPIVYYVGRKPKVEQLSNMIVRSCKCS
FGF-5 (fibroblast growth factor 5), sequence (P12034 18-268 limits assumed): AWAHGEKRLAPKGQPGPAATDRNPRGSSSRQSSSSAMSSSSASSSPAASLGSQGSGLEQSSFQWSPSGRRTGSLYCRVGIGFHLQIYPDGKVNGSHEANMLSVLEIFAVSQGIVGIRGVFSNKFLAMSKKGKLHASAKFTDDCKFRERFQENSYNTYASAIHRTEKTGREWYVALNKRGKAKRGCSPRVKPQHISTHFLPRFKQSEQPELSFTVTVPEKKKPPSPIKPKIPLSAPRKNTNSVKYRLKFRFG

Substance “BBIt with the VEGF-binding peptide VegKD (KYDLYWW) in the chymotrypsin loop (designed binder)” displayed an IC50 in test [1] of 2 to 10 µM.

On to “BBIt-VEGT (BBIt with the VEGF-binding peptide VegT TLWKSYW in the chymotrypsin loop) (designed binder)”, for which the IC50 in test [1] fell in the range of 2 to 10 µM.

In test [2], “WTQ-BBIt-Q-TGF (BBIt-A13I-L29P-F50T-V52A with the TGFβ1 binding peptide WTQ WTQHIHN) (designed binder)” gave an IC50 of 10 to 50 µM.

Regarding “sBBI (wild-type soybean Bowman-Birk Inhibitor) (from UniProt P01055 40-110)”, the IC50 in test [3] and in test [4] was greater than 250 µM in each case.

As for “PEN3-Q-BBIt-TGF-A40L-F50N (BBIt-A40L-F50N with the TGFβ1 binding peptide PEN3 PENINVLP) (designed binder)”, the IC50 in test [2] lay in the range of 10 to 50 µM.

Regarding “BBIt-VEGK (BBIt with the VEGF-binding peptide VegK KYYLYWW in the chymotrypsin loop) (designed binder)”, in test [1], the concentration for half-maximal inhibition (IC50) is 2 to 10 µM.
